Measured values as given in patent US20110124572A1 (published 2011).

Biological target: small GTPase Rac1 (UniProt P63000 1-189)
Assay: immunoprecipitation with Tiam-1 antiserum from MCF-7 line lysates, blot with anti-Rac1
Experimental: In brief, 70% confluent cultures of 25 mL flask were detached, pelleted and following 2 times washing with PBS. The pellet were lysed in RIPA buffer then centrifuged and the supernatant was pre-cleared by addition of 5 μL of protein A/G-sepharose beads slurry (Pierce) for 2 hours, then the supernatant was incubated with the antibody of interest for 24 hours. 10 μL of protein A/G slurry was added for 2 hours, collected by pulse centrifugation, washed 3 times with lysis buffer, resuspended in 2×SDS loading buffer subjected to SDS-PAGE, followed by immunoblotting with the appropriate antibodies.

- binding result: binds
B1: Tiam-1, Rac1-specific guanine nucleotide exchange factor (RacGEF) (enzyme)
chain: GNAESQHVEHEFYGEKHASLGRKHTSRSLRLSHKTRRTRHASSGKVIHRNSEVSTRSSSTPSIPQSLAENGLEPFSQDGTLEDFGSPIWVDRVDMGLRPVSYTDSSVTPSVDSSIVLTAASVQSMPDTEESRLYGDDATYLAEGGRRQHSYTSNGPTFMETASFKKKRSKSADIWREDSLEFSLSDLSQEHLTSNEEILGSAEEKDCEEARGMETRASPRQLSTCQRANSLGDLYAQKNSGVTANGGPGSKFAGYCRNLVSDIPNLANHKMPPAAAEETPPYSNYNTLPCRKSHCLSEGATNPQISHSNSMQGRRAKTTQDVNAGEGSEFADSGIEGATTDTDLLSRRSNATNSSYSPTTGRAFVGSDSGSSSTGDAARQGVYENFRRELEMSTTNSESLEEAGSAHSDEQSSGTLSSPGQSDILLTAAQGTVRKAGALAVKNFLVHKKNKKVESATRRKWKHYWVSLKGCTLFFYESDGRSGIDHNSIPKHAVWVENSIVQAVPEHPKKDFVFCLSNSLGDAFLFQTTSQTELENWITAIHSACATAVARHHHKEDTLRLLKSEIKKLEQKIDMDEKMKKMGEMQLSSVTDSKKKKTILDQIFVWEQNLEQFQMDLFRFRCYLASLQGGELPNPKRLLAFASRPTKVAMGRLGIFSVSSFHALVAARTGETGVRRRTQAMSRSASKRRSRFSSLWGLDTTSKKKQGRPSINQVFGEGTEAVKKSLEGIFDDIVPDGKREKEVVLPNVHQHNPDCDIWVHEYFTPSWFCLPNNQPALTVVRPGDTARDTLELICKTHQLDHSAHYLRLKFLIENKMQLYVPQPEEDIYELLYKEIEICPKVTQSIHIEKSDTAADTYGFSLSSVEEDGIRRLYVNSVKETGLASKKGLKAGDEILEINNRAADALNSSMLKDFLSQPSLGLLVRTYPELEEGVELLESPPHRVDGPADLGESPLAFLTSNPGHSLCSEQGSSAETAPEETEGPDLESSDETDHSSKSTEQVAAFCRSLHEMNPSDQSPSPQDSTGPQLATMRQLSDADKLRKVICELLETERTYVKDLNCLMERYLKPLQKETFLTQDELDVLFGNLTEMVEFQVEFLKTLEDGVRLVPDLEKLEKVDQFKKVLFSLGGSFLYYADRFKLYSAFCASHTKVPKVLVKAKTDTAFKAFLDAQNPKQQHSSTLESYLIKPIQRILKYPLLLRELFALTDAESEEHYHLDVAIKTMNKVASHINEMQKIHEEFGAVFDQLIAEQTGEKKEVADLSMGDLLLHTTVIWLNPPASLGKWKKEPELAAFVFKTAVVLVYKDGSKQKKKLVGSHRLSIYEDWDPFRFRHMIPTEALQVRALASADAEANAVCEIVHVKSESEGRPERVFHLCCSSPESRKDFLKAVHSILRDKHRRQLLKTESLPSSQQYVPFGGKRLCALKGARPAMSRAVSAPSKSLGRRRRRLARNRFTIDSDAVSASSPEKESQQPPGGGDTDRWVEEQFDLAQYEEQDDIKETDILSDDDEFCESVKGASVDRDLQERLQATSISQRERGRKTLDSHASRMAQLKKQAALSGINGGLESASEEVIWVRREDFAPSRKLNTEI
notes: Endogenous protein in MCF-7 cell lysate
